This data set concerns the molecule itself. The experiment in a line: SEC; Superdex 200 16/60, 20 mM HEPES-NaOH pH 8.0, 250 mM NaCl, 2 mM DTT, proteins ~3 mg/ml, 1 ml/min, calibrated with ferritin, aldolase, conalbumin and ovalbumin; oligomeric state from the elution volume. In general terms: Size exclusion chromatography separates by hydrodynamic size, large species first.

B1: 6-P-β-glucosidase from Streptococcus mutans UA159 (SmBgl) (enzyme)
chain: SNAMSKLPENFLWGGAVAAHQLEGGWQEGGKGISVADVMTAGRHGVAREITAGVLEGKYYPNHEAIDFYHHYKEDVKLFAEMGFKCFRTSIAWTRIFPKGDEAEPNEAGLQFYDDLFDECLKYGIEPVVTLSHFELPYHLVTEYGGFTNRKVIDFFVHFAEVCFRRYKDKVKYWMTFNEINNQANYQEDFAPFTNSGIVYKEGDDREAIMYQAAHYELVASARAVKIGHAINPNLNIGCMVAMCPIYPATCNPKDILMAQKAMQKRYYFADVHVHGFYPEHIFKYWERKAIKVDFTERDKKDLFEGTVDYIGFSYYMSFVIDAHRENNPYYDYLETEDLVKNPYVKASDWDWQIDPQGLRYALNWFTDMYHLPLFIVENGFGAIDQVEADGMVHDDYRIDYLGAHIKEMIKAVDEDGVELMGYTPWGCIDLVSAGTGEMRKRYGFIYVDKDDEGKGTLKRSPKLSFNWYKEVIASNGDDI
notes: non-natural N-terminal extension left after TEV cleavage of the His6 tag (vector pMCSG7); 6-P-β-glucosidase Bgl of Streptococcus mutans UA159, 477 residues (Met1-Ile477), amplified from genomic DNA; The SAD structure (3pn8) was solved from selenomethionine-labelled protein; source: E. coli BL21 (DE3) Magic, purified (IMAC-I, SEC on Superdex 200, TEV cleavage of the His6 tag, IMAC-II); not shown: …
Take B1: the “stoichiometry N” value is 2.

A word on the stoichiometry N: it is the number of molecules, sites or subunits per partner or assembly.

Source of the values: PMC3605045, “GH1-family 6-P-β-glucosidases from human microbiome lactic acid bacteria” (Acta Crystallographica Section D: Biological Crystallography, 2013).
